The source of these data is the supplement of paper PMC11780869.

The subject of this series is Bacillus subtilis. Briefly: cleaved RNA product abundance (RNA/gDNA barcode ratio) relative to median wild-type variant (ratio to wild type); higher = more accumulation of the downstream cleavage product. The method in brief:
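Reporter mRNAs based on truncated aprE or tetM carried barcoded, mutagenized RNase Y cleavage-site windows built from oligos with a 9% error rate and were integrated into the B. subtilis chromosome. Cultures grew in LB at 37°C from OD600 0.0003 to 0.3. Cleaved RNA was gel-selected, reverse transcribed and barcode-sequenced together with genomic DNA barcodes, and UMIs were collapsed. Cleaved product abundance is the per-construct ratio of RNA to gDNA barcodes, scaled to the median of constructs carrying the unmutated site.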

Setting [1] is: experiment (reporter, strain, medium): exp 2b: truncated aprE reporter, strain BJT200, cleavage site: cggR-gapA (positions -7 to +36 mutated).
[2] abbreviates: experiment (reporter, strain, medium): exp 4a: truncated aprE reporter, strain BJT201 with 2% xylose (RNase J1 expressed), cleavage site: cggR-gapA (positions -7 to +36 mutated).
The mark [3] stands for this setting: experiment (reporter, strain, medium): exp 8a: truncated aprE reporter, strain BJT201 with 2% xylose (RNase J1 expressed), cleavage site: glnRA (positions -5 to +31 mutated).

On to “ACAGACGAAGGAGCCGCAAAGAAGTTATTAATGGATGAATAATCCCTCAATATAAATGTCTCTCACTTATTTAAA”, for which the “cleaved RNA product abundance” value under setting [1] worked out at 0.107 and the “cleaved RNA product abundance” value under setting [2] is 0.194. Consider “ACAGACGAAGGAGCCGCAAAGAAGTTATTAAGAGATGAATAATCCCTCAATGTAAATATCTCTCACTTATTTAAA”, for which the “cleaved RNA product abundance” value was 0.0969 under setting [1] and 0.0609 under setting [2].

Turning to “ACAGACGAAGGAGCCGCAAAGAAGTTATTAAGGGATGAATATGCCCTCAATATAAATATCTCTCACTTATTTAAA”, the “cleaved RNA product abundance” value under setting [2] turned out to be 0.363. On to “CGACATGTCCCGCTTCTTTCATTACTCCGTTAGCAACTGTTTTGATATATACATTTACCTTTTAAGAGGAGGAAT”, for which the “cleaved RNA product abundance” value under setting [3] turned out to be 0.587. Same read-out and setting: for “CGACATGTCCCGCTTCTTTCATTACTCCGTTAGCAACTGTTTTGCTATATACATTTACTTTTTAAGAGGAGGAAT” the value was 1.59; for “CGACATGTCCCGCTTCTTTCATTAATCCATTAGCAACTGTATTGCTATATACATTTACCTTTTAAGAGGAGGAAT”, 0.279. On the same count and under the same terms, as for “CGACATGTCCCGCTTCTTTCATTAATCCGTTAGCAACTGTATTGCTATATACATATACCTTTTAAGAGGAGGAAT”, the figure is 0.755. As to “ACAGACGAAGGAGCCGCAAAGAAATTATTAAGGGAAGAATAATCCCTCAATATAAATATCTCTCACTTATTTAAA”, the “cleaved RNA product abundance” value under setting [1] came out at 0.394 and the “cleaved RNA product abundance” value under setting [2] was found to be 0.599. Regarding “ACAGACGAAGGAGCCGCAAAGAAGTTATTAAGGGATGAATCAGCCCTCAATATAAATATCTCTCACTTATTTAAA”, under setting [2], the “cleaved RNA product abundance” value was found to be 0.813. Same read-out and setting: for “ACAGACGAAGGAGCCGCAAAGAAGTAATTAAGGGGTGAATAATCCCTCAATATAAATATCTCTCACTTATTTAAA” the value was 0.308.

For the sequence “CGACATGTCCCGCTTCTTTCATTAATCCGTTAGCAAATGTTTTCCTATATACACTTACCTTTTAAGAGGAGGAAT”, under setting [3], the “cleaved RNA product abundance” value is 0.377. The same measure, in the same setting: for “CGACATGTCCCGCTTCTTTCATTAATCCGTTAGCCAATGTTTTGCTATATACATTTACCTTTTAAGAGGAGGAAT” the value was 0.576. “ACAGACGAAGGAGCCGCAAAGAAGTTATTAAGGGATGAATAATCGCTCAATATATATATCTCTCACTTATTTAAA”: the “cleaved RNA product abundance” value turned out to be 0.113 under setting [1] and 0.0772 under setting [2]. As for “CGACATGTCCCGCTTCTTTCATTAATCCGTGAGCAACTGTTTTGCTATATACTTTTACCTTTTAAGAGGAGGAAT”, under setting [3], the “cleaved RNA product abundance” value came out at 0.154. Same read-out and setting: as for “CGACATGTCCCGCTTCTTTCATTAATCCGTTGGCAACTATTTTGCTATATACATTTACCTTTTAAGAGGAGGAAT”, the figure is 0.866. As for “ACAGACGAAGGAGCCGCAAATAAGTTATTAATGGATGAATAATCCCTCATTATAAATATCTCTCACTTATTTAAA”, under setting [2], the “cleaved RNA product abundance” value was 0.135.

For the sequence “ACAGACGAAGGAGCCGCAAAGTAGTTATTAAGGGATGAATAATCCATCAATATAAATATCTCTCACTTATTTAAA”, the “cleaved RNA product abundance” value was found to be 0.187 under setting [1] and 0.161 under setting [2]. On the same counts, the results for “ACAGACGAAGGAGCCGCAAAGAAGTTTTTAAGTGATGAATAATCCCTCAATATAAATATCTCTCACTTATTTAAA” are 0.117 and 0.0945.

As to “ACAGACGAAGGAGCCGCAAAGAAGTAATTAAGGGATGAATAATCCCTCAATATAAGTATCTCTCACTTATTTAAA”, under setting [1], the “cleaved RNA product abundance” value was determined as 0.119.

“ACAGACGAAGGAGCCGCAAAGAAGTTATAAAGGGATGAATAATCCCTCAATATAATTATCTCTCACTTATTTAAA”: the “cleaved RNA product abundance” value under setting [2] was determined as 0.171. In the case of “ACAGACGAAGGAGCCGCAAAGAAGTTATTAAGGGATGAATAGTCCCTCAATATAAATATCTCTCACTTATTTAAA”, the “cleaved RNA product abundance” value under setting [1] is 0.912; the “cleaved RNA product abundance” value under setting [2] is 0.857; the “cleaved RNA product abundance” value (experiment (reporter, strain, medium): exp 6: tetM reporter, strain 168, cleavage site: cggR-gapA (positions -7 to +36 mutated)) turned out to be 1.25. Take “ACAGACGAAGGAGCCGCAAAGAAGTTATTAAGGGATGAATAATCCCCCAATATAAACATCTCTCACTTATTTAAA”: the “cleaved RNA product abundance” value under setting [2] was 0.291. Consider “CGACATGTCCCGCTTCTTTCATTAATCCGTTAACAACTTTTTTGCTATATACATTTACCTTTTAAGAGGAGGAAT”, for which, under setting [3], the “cleaved RNA product abundance” value is 0.193. Regarding “ACAGACGAAGGAGCCGCAAAGAAGATATTAAGGAATGAATAATCCCTCAATATAAATATCTCTCACTTATTTAAA”, the “cleaved RNA product abundance” value runs as follows: under setting [1], 0.12; under setting [2], 0.175. For the sequence “ACAGACGAAGGAGCCGCAAAAAAGTTATTAAGGGATGAATAATCCCTCACTATAAATATCTCTCACTTATTTAAA”, the “cleaved RNA product abundance” value under setting [2] was 0.537. On the same count and under the same terms, for “ACAGACGAAGGAGCCGCAAAGATGTTATTAAGGGATGAATAATCCCTCATTATAAATATCTCTCACTTATTTAAA” the value was 0.411. With “ACAGACGAAGGAGCCGCAAAGAAGTTAATAAGGGATGAATAATCCGTCAATATAAATATCTCTCACTTATTTAAA”, the “cleaved RNA product abundance” value under setting [1] was 0.177. “ACAGACGAAGGAGCCGCAAAGAAGTTATTAATGGATGAATAATCCCTCAATTTAAATATCTCTCACTTATTTAAA”: under setting [1], the “cleaved RNA product abundance” value was found to be 0.0807. With “CGACATGTCCCGCTTCTTTCATTAATACGTTAGCAACTGTTTTGCTATATACATTCACCTTTTAAGAGGAGGAAT”, the “cleaved RNA product abundance” value under setting [3] was 0.695. “ACAGACGAAGGAGCCGCAAAGAATTTATTAAGGGATGAATAATCCATCAATATAAATATCTCTCACTTATTTAAA”: the “cleaved RNA product abundance” value reads like this: under setting [1], 0.204; under setting [2], 0.269. Taken in the same sequence, the figures for “ACAGACGAAGGAGCCGCAAAGAAGTTATTAAGTTATGAATAATCCCTCAATATAAATATCTCTCACTTATTTAAA” were 0.0915 and 0.13. In the case of “CGACATGTCCCGCTTCTTTCATTAATACGTTAGTAACTGTTTTGCTATATACATTTACCTTTTAAGAGGAGGAAT”, the “cleaved RNA product abundance” value under setting [3] stood at 0.334. On to “ACAGACGAAGGAGCCGCAAAAAAGTTCTTAAGGGATGAATAATCCCTCAATATAAATATCTCTCACTTATTTAAA”, for which the “cleaved RNA product abundance” value under setting [2] was determined as 0.218. On the same count and under the same terms, as for “ACAGACGAAGGAGCCGCAACGAAGTTATTATGGGATGAATAATCCCTCAATATAAATATCTCTCACTTATTTAAA”, the figure is 0.483. With “ACAGACGAAGGAGCCGCAAAAAAGTTATTAAGGGCTGAATAATCCCTCAATATAAATATCTCTCACTTATTTAAA”, the “cleaved RNA product abundance” value by setting is: under setting [1], 0.478; under setting [2], 0.694. On the same counts, the results for “ACAGACGAAGGAGCCGCAAAGAATTTATTAAGGGACGAATAATCCCTCAATATAAATATCTCTCACTTATTTAAA” are 0.463 and 0.605.

In the case of “ACAGACGAAGGAGCCGCAAAGAAGTTATTAAGGGATGAATAATACCTCCATATAAATATCTCTCACTTATTTAAA”, the “cleaved RNA product abundance” value under setting [1] was determined as 0.069 and the “cleaved RNA product abundance” value under setting [2] stood at 0.092. Regarding “ACAGACGAAGGAGCCGCAAAGAAGTTATTAAGCGATGACTAATCCCTCAATATAAATATCTCTCACTTATTTAAA”, the “cleaved RNA product abundance” value under setting [2] worked out at 0.0948. Consider “ACAGACGAAGGAGCCGCAAAGAAGTTATTAAGGAATGAATACTCCCTCAATATAAATATCTCTCACTTATTTAAA”, for which the “cleaved RNA product abundance” value worked out at 0.116 under setting [1] and 0.106 under setting [2]. As to “ACAGACGAAGGAGCCGCAAAGAATTTATTAAGGGATGAATAATCTCTCAATATAAATATCTCTCACTTATTTAAA”, the “cleaved RNA product abundance” value under setting [2] was determined as 0.844. As to “ACAGACGAAGGAGCCGCAAAGAAGTTATTAAGTGATGAATAATCCCTCAATATATATATCTCTCACTTATTTAAA”, the “cleaved RNA product abundance” value under setting [1] was 0.115 and the “cleaved RNA product abundance” value under setting [2] is 0.107. “ACAGACGAAGGAGCCGCACAGAAGTTATTAAGGGATGAATAATCCCTAAATATAAATATCTCTCACTTATTTAAA”: the “cleaved RNA product abundance” value under setting [2] was 0.586. Take “ACAGACGAAGGAGCCGCAAAGAAGTAATTAAGGGATGAATAATCCCTCAATATATATATCTCTCACTTATTTAAA”: the “cleaved RNA product abundance” value worked out at 0.2 under setting [1] and 0.278 under setting [2].

Regarding “CGACATGTCCCGCTTCTTTCATTAATCCGTTACCAACTGTTTTTCTATATACATTTACCTTTTAAGAGGAGGAAT”, under setting [3], the “cleaved RNA product abundance” value came to 0.234.

“ACAGACGAAGGAGCCGCAAAGAAGTTATTAAGGAATGAACAATCCCTCAATATAAATATCTCTCACTTATTTAAA”: the “cleaved RNA product abundance” value is 0.0794 under setting [1] and 0.124 under setting [2]. Turning to “ACAGACGAAGGAGCCGCAAAGAATTCATTAAGGGATGAATAATCCCTCAATATAAATATCTCTCACTTATTTAAA”, the “cleaved RNA product abundance” value turned out to be 0.196 under setting [1] and 0.23 under setting [2]. For the sequence “ACAGACGAAGGAGCCGCATAGAAGTTATTAAGGGATGAATAATCCCTCAATATAAATTTCTCTCACTTATTTAAA”, under setting [2], the “cleaved RNA product abundance” value amounted to 0.644. Same read-out and setting: as for “ACAGACGAAGGAGCCGCAAAGAAGTTATTAGGAGATGAATAATCCCTCAATATAAATATCTCTCACTTATTTAAA”, the figure is 0.24.

Consider “ACAGACGAAGGAGCCGCAAATAAGTTATTAAGGGATGAATTATCCCTCAATATAAATATCTCTCACTTATTTAAA”, for which the “cleaved RNA product abundance” value was determined as 0.711 under setting [1] and 0.737 under setting [2]. For “ACAGACGAAGGAGCCGCAAAGAAGTTACTAAGGGAAGAATAATCCCTCAATATAAATATCTCTCACTTATTTAAA”, under setting [2], the “cleaved RNA product abundance” value was found to be 0.138. Regarding “CGACATGTCCCGCTTCTTTCATTACTCCGTTAGCAACTGTTATGCTATATACATTTACCTTTTAAGAGGAGGAAT”, the “cleaved RNA product abundance” value under setting [3] was determined as 0.602. As for “CGACATGTCCCGCTTCTTTCATTAATCCGTTAGCAACAGATTTGCTATATACATTTACCTTTTAAGAGGAGGAAT”, the “cleaved RNA product abundance” value under setting [3] is 0.68. As for “ACAGACGAAGGAGCCGCAAAGAAGTTATTAAGAGATGAATAATCCCTCAATCTAAATATCTCTCACTTATTTAAA”, the “cleaved RNA product abundance” value under setting [2] turned out to be 0.0377.
